Test results taken from patent publication US20260022353.

Target: piggyBac transposase, 5 hyperactive mutations (Hyper) I30V,G165S,M226F,M282V,N538K (Trichoplusia ni?) (UniProt Q27026)
Experiment: cell_activity
Conditions: ~50% enhanced integration in K562 (p260); ~50% enhanced excision in 293T (p263)

Sequence of UniProt Q27026 (Q27026 entry or part of it I30V G165S M226F M282V N538K): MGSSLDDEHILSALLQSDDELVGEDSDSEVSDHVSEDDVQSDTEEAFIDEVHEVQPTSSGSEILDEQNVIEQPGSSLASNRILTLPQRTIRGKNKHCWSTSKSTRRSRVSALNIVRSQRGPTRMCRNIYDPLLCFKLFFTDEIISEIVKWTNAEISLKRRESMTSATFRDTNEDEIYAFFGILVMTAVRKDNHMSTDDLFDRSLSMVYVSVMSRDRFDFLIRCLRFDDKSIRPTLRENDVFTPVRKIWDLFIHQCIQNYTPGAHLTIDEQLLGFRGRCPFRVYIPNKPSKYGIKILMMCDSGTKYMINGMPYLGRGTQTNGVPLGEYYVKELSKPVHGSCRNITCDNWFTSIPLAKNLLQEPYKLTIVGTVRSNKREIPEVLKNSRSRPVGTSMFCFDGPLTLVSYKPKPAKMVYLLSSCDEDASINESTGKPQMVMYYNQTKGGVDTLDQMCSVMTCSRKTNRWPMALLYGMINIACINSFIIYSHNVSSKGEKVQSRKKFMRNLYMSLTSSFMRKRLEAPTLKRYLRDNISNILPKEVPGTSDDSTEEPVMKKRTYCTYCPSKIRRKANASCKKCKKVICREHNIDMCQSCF

piggyBac transposon with wild type LE and RE ITRs (dual reporter)
activity (fold vs 4-mutation SPB): 1.5
